In one experiment the target is CD33 (UniProt P20138 18-364, limits assumed). The experiment is described as follows: cell-based or functional assay.
Experiment [1] addresses T1, human B7-H3 variant 1 (human, UniProt Q5ZPR3 27-534).
T1 sequence: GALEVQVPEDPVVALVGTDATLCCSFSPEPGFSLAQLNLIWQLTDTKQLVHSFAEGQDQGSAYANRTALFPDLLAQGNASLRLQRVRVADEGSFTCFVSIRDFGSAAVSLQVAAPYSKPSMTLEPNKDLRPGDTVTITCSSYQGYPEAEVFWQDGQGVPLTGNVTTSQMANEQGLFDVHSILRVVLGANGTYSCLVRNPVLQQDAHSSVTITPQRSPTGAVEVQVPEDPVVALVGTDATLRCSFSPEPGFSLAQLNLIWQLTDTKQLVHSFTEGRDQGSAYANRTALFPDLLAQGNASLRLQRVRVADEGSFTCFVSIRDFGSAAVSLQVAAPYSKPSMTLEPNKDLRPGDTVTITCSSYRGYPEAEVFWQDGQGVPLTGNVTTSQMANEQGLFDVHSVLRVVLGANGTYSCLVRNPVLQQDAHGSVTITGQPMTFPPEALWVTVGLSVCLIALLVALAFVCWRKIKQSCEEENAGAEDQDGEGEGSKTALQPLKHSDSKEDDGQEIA
The experiment is described as follows: cell-based or functional assay.

In experiment [2] the target is T1, human B7-H3 variant 1. In words: flow cytometry, M30 at 10 µg/mL on CCRF-CEM clones transfected with B7-H3 variant 1, fluorescein-labelled anti-mouse IgG. (A flow cytometer gives signals particle by particle.)
Protocol: Flow cytometry was used for confirming B7-H3 expression in each recovered clone. Specifically, each recovered clone was washed twice with PBS containing 5% FBS, thereafter suspended by the addition of PBS containing 5% FBS and 10 μg/mL M30, and left standing at 4° C. for 30 minutes. […] The clone was washed twice with PBS containing 5% FBS, thereafter resuspended in PBS containing 5% FBS, and detected by using a flow cytometer (FC500: Beckman Coulter, Inc.).
A further experiment deals with T2, CD30 (UniProt P28908 19-595, limits assumed).
T2 sequence (looked up): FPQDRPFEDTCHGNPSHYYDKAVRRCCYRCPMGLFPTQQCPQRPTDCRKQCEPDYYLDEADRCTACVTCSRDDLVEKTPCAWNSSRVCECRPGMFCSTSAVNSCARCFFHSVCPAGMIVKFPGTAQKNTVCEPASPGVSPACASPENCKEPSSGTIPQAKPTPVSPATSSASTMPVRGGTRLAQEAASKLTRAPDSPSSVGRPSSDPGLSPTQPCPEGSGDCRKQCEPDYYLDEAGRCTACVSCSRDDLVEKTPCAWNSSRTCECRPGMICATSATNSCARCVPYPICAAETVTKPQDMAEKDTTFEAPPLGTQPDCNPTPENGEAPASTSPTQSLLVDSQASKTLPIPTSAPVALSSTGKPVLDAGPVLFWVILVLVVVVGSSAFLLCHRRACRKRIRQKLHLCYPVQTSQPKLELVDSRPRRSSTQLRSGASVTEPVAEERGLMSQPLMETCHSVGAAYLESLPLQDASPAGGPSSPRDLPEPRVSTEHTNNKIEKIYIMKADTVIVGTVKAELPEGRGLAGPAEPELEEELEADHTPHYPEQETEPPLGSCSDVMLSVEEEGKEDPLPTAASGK
The experiment is described as follows: cell-based or functional assay.

Sequence of CD33 (P20138 18-364 limits assumed): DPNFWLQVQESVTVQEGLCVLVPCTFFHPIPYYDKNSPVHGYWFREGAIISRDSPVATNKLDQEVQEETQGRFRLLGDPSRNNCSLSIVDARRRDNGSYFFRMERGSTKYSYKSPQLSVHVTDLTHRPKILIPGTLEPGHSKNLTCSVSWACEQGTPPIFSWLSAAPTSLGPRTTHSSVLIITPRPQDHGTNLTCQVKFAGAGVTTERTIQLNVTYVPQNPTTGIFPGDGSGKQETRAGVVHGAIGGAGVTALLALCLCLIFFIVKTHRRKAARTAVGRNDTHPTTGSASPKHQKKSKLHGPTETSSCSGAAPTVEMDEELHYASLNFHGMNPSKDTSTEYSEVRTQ

B1: Antibody-drug conjugate (10) (antibody, V domains shown)
VH: EVQLVQSGAEVKKPGSSVKVSCKASGYTITDSNIHWVRQAPGQSLEWIGYIYPYNGGTDYNQKFKNRATLTVDNPTNTAYMELSSLRSEDTAFYYCVNGNPWLAYWGQGTLVTVSS
VL: DIQLTQSPSTLSASVGDRVTITCRASQSLDNYGIRFLTWFQQKPGKAPKLLMYAASNQGSGVPSRFSGSGSGTEFTLTISSLQPDDFATYYCQQTKEVPWSFGQGTKVEVKR
modifications: drug-linker -(Succinimid-3-yl-N)-CH2CH2CH2CH2CH2-C(=O)-DGGFG-NH-CH2CH2CH2-C(=O)-(NH-DX) (exatecan) bound by thioether at reduced hinge disulfide cysteines (positions not given); average 6.6 drug molecules per antibody
Turning to B1, in the experiment with CD33, the “IC50, cytotoxic effect (cell growth inhibition, CellTiter-Glo) on HL-60 cells” value was less than 1 nM.

B2: Antibody-drug conjugate (6) (antibody, human IgG1, kappa, V domains shown)
VH: QVQLVQSGAEVKKPGSSVKVSCKASGYTFTNYVMHWVRQAPGQGLEWMGYINPYNDDVKYNEKFKGRVTITADESTSTAYMELSSLRSEDTAVYYCARWGYYGSPLYYFDYWGQGTLVTVSS
VL: EIVLTQSPATLSLSPGERATLSCRASSRLIYMHWYQQKPGQAPRPLIYATSNLASGIPARFSGSGSGTDFTLTISSLEPEDFAVYYCQQWNSNPPTFGQGTKVEIKR
modifications: drug-linker -(Succinimid-3-yl-N)-CH2CH2CH2CH2CH2-C(=O)-DGGFG-NH-CH2CH2CH2-C(=O)-(NH-DX) (exatecan) bound by thioether at reduced hinge disulfide cysteines (positions not given); average 6.2 drug molecules per antibody
On to B2, for which the “IC50, anticellular effect (cell growth inhibition, CellTiter-Glo) on CEM_V1_3.1_2 cells” value with human B7-H3 variant 1 [1] was less than 0.1 nM.

B3: Antibody-drug conjugate (23) (antibody, human IgG1, kappa, V domains shown)
VH: QVQLVQSGAEVKKPGSSVKVSCKASGYTFTNYVMHWVRQAPGQGLEWMGYINPYNDDVKYNEKFKGRVTITADESTSTAYMELSSLRSEDTAVYYCARWGYYGSPLYYFDYWGQGTLVTVSS
VL: EIVLTQSPATLSLSPGERATLSCRASSRLIYMHWYQQKPGQAPRPLIYATSNLASGIPARFSGSGSGTDFTLTISSLEPEDFAVYYCQQWNSNPPTFGQGTKVEIKR
modifications: drug-linker -(Succinimid-3-yl-N)-CH2CH2CH2CH2CH2-C(=O)-DGGFG-(NH-DX) (exatecan) bound by thioether at reduced hinge disulfide cysteines (positions not given); average 6.6 drug molecules per antibody
Consider B3, for which, in the experiment with human B7-H3 variant 1 [1], the “IC50, anticellular effect (cell growth inhibition, CellTiter-Glo) on CEM_V1_3.1_2 cells” value is less than 0.1 nM.

B4: M30 antibody (antibody, mouse IgG2a, kappa, V domains shown)
VH: EVQLQQSGPELVKPGASVKMSCKASGYTFTNYVMHWVKQKPGQGLEWIGYINPYNDDVKYNEKFKGKATQTSDKSSSTAYMELSSLTSEDSAVYYCARWGYYGSPLYYFDYWGQGTTLTVSS
VL: QIVLSQSPTILSASPGEKVTMTCRASSRLIYMHWYQQKPGSSPKPWIYATSNLASGVPARFSGSGSGTSYSLTISRVEAEDAATYYCQQWNSNPPTFGTGTKLELKR
notes: Mouse monoclonal anti-B7-H3 antibody from hybridoma M30
As to B4, the binding result with human B7-H3 variant 1 [2] is “binds”.

B5: Antibody-drug conjugate (7) (antibody, V domains shown)
VH: QIQLQQSGPEVVKPGASVKISCKASGYTFTDYYITWVKQKPGQGLEWIGWIYPGSGNTKYNEKFKGKATLTVDTSSSTAFMQLSSLTSEDTAVYFCANYGNYWFAYWGQGTQVTVSA
VL: DIVLTQSPASLAVSLGQRATISCKASQSVDFDGDSYMNWYQQKPGQPPKVLIYAASNLESGIPARFSGSGSGTDFTLNIHPVEEEDAATYYCQQSNQDPWTFGGGTKLEIKR
modifications: drug-linker -(Succinimid-3-yl-N)-CH2CH2CH2CH2CH2-C(=O)-DGGFG-NH-CH2CH2CH2-C(=O)-(NH-DX) (exatecan) bound by thioether at reduced hinge disulfide cysteines (positions not given); average 4.6 drug molecules per antibody
Consider B5, for which, in the experiment with CD30, the “IC50, anticellular effect (cell growth inhibition, CellTiter-Glo) on SR cells” value is less than 0.01 nM.

B6: Antibody-drug conjugate (24) (antibody, V domains shown)
VH: QIQLQQSGPEVVKPGASVKISCKASGYTFTDYYITWVKQKPGQGLEWIGWIYPGSGNTKYNEKFKGKATLTVDTSSSTAFMQLSSLTSEDTAVYFCANYGNYWFAYWGQGTQVTVSA
VL: DIVLTQSPASLAVSLGQRATISCKASQSVDFDGDSYMNWYQQKPGQPPKVLIYAASNLESGIPARFSGSGSGTDFTLNIHPVEEEDAATYYCQQSNQDPWTFGGGTKLEIKR
modifications: drug-linker -(Succinimid-3-yl-N)-CH2CH2CH2CH2CH2-C(=O)-DGGFG-(NH-DX) (exatecan) bound by thioether at reduced hinge disulfide cysteines (positions not given); average 2.9 drug molecules per antibody
Regarding B6, the “IC50, anticellular effect (cell growth inhibition, CellTiter-Glo) on SR cells” value with CD30 was less than 0.01 nM.

B7: Antibody-drug conjugate (8) (antibody, V domains shown)
VH: QIQLQQSGPEVVKPGASVKISCKASGYTFTDYYITWVKQKPGQGLEWIGWIYPGSGNTKYNEKFKGKATLTVDTSSSTAFMQLSSLTSEDTAVYFCANYGNYWFAYWGQGTQVTVSA
VL: DIVLTQSPASLAVSLGQRATISCKASQSVDFDGDSYMNWYQQKPGQPPKVLIYAASNLESGIPARFSGSGSGTDFTLNIHPVEEEDAATYYCQQSNQDPWTFGGGTKLEIKR
modifications: drug-linker -(Succinimid-3-yl-N)-CH2CH2CH2CH2CH2-C(=O)-DGGFG-NH-CH2CH2CH2-C(=O)-(NH-DX) (exatecan) bound by thioether at reduced hinge disulfide cysteines (positions not given); average 7.9 drug molecules per antibody
Regarding B7, in the experiment with CD30, the “IC50, anticellular effect (cell growth inhibition, CellTiter-Glo) on SR cells” value was less than 0.01 nM.

B8: Antibody-drug conjugate (25) (antibody, V domains shown)
VH: QIQLQQSGPEVVKPGASVKISCKASGYTFTDYYITWVKQKPGQGLEWIGWIYPGSGNTKYNEKFKGKATLTVDTSSSTAFMQLSSLTSEDTAVYFCANYGNYWFAYWGQGTQVTVSA
VL: DIVLTQSPASLAVSLGQRATISCKASQSVDFDGDSYMNWYQQKPGQPPKVLIYAASNLESGIPARFSGSGSGTDFTLNIHPVEEEDAATYYCQQSNQDPWTFGGGTKLEIKR
modifications: drug-linker -(Succinimid-3-yl-N)-CH2CH2CH2CH2CH2-C(=O)-DGGFG-(NH-DX) (exatecan) bound by thioether at reduced hinge disulfide cysteines (positions not given); average 4.8 drug molecules per antibody
As for B8, the “IC50, anticellular effect (cell growth inhibition, CellTiter-Glo) on SR cells” value with CD30 was less than 0.01 nM.

For the origin of these results see US20180071403A1 (Daiichi Sankyo, published 2018).
